Assay results reported in the supplement of paper PMC9732359.
± gives the uncertainty stated by the source.

Assay: protein stability index of a GFP-peptide fusion (yeast GPS) (PSI 1-4); higher = more stable; sorted into four equal gates, so the index is relative within each strain
Outline: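 Mid-log yeast cultures in leucine-free medium, carrying a pooled plasmid library, were sorted into four equal gates by their GFP/Cherry fluorescence ratio. Each plasmid expressed Cherry along with GFP fused upstream of a tiled 17-residue yeast protein peptide. Plasmids recovered from each gate were PCR-amplified and Illumina-sequenced, with reads assigned to strains by barcodes. The protein stability index was obtained by summing each gate's read frequency weighted by its gate number.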

Sequence: SLHNTEKIMENKYPELL [AAR2]
- protein stability index (doa10∆): 2.94 ± 0.052
- protein stability index (pdr5∆): 3.18 ± 0.058
- protein stability index (san1∆): 3 ± 0.038
- protein stability index (ubr1∆): 2.86 ± 0.034

Sequence: YSKSFEQFKMVSMITDH [POP1]
- protein stability index (doa10∆): 2.3 ± 0.12
- protein stability index (pdr5∆): 1.97 ± 0.23
- protein stability index (san1∆): 1.62 ± 0.26
- protein stability index (ubr1∆): 1.95 ± 0.15

Sequence: QNNKPSFVFGQAAAKPS [YLR335W/NUP2]
- protein stability index (doa10∆): 1.77 ± 0.05
- protein stability index (pdr5∆): 2.12 ± 0.066
- protein stability index (san1∆): 2.2 ± 0.1
- protein stability index (ubr1∆): 2.45 ± 0.075

Sequence: VLCLTRSSYMLELVNTP [YCG1]
- protein stability index (doa10∆): 1.58 ± 0.059
- protein stability index (pdr5∆): 2.03 ± 0.2
- protein stability index (san1∆): 1.77 ± 0.099
- protein stability index (ubr1∆): 1.98 ± 0.087

Sequence: RKSAPVDSWDREFLKVD [SKP1]
- protein stability index (doa10∆): 3.25 ± 0.13
- protein stability index (pdr5∆): 3.27 ± 0.094
- protein stability index (san1∆): 3.04 ± 0.1
- protein stability index (ubr1∆): 3.19 ± 0.078

Sequence: SVHHARVLITQRHIAVG [RPS9A]
- protein stability index (pdr5∆): 1.31 ± 0.14

Sequence: SLGFLQQSNKLHCCIQL [RPN3]
- protein stability index (doa10∆): 2.39 ± 0.06
- protein stability index (pdr5∆): 2.47 ± 0.085
- protein stability index (san1∆): 1.86 ± 0.12
- protein stability index (ubr1∆): 2.14 ± 0.058

Sequence: HKISFSGTKSEVLTYVN [YJL039C/NUP192]
- protein stability index (doa10∆): 2.65 ± 0.093
- protein stability index (pdr5∆): 2.49 ± 0.082
- protein stability index (san1∆): 2.39 ± 0.11
- protein stability index (ubr1∆): 2.7 ± 0.087

Sequence: QVPDSLDDQIFVCEKSI [RPN6]
- protein stability index (doa10∆): 3.01 ± 0.2
- protein stability index (pdr5∆): 3.19 ± 0.1
- protein stability index (san1∆): 2.95 ± 0.084
- protein stability index (ubr1∆): 2.92 ± 0.13

Sequence: IDMDKLNTVLIADLDTE [RRP43]
- protein stability index (doa10∆): 2.66 ± 0.099
- protein stability index (pdr5∆): 3.02 ± 0.07
- protein stability index (san1∆): 2.83 ± 0.066
- protein stability index (ubr1∆): 3.22 ± 0.057

Sequence: ITKDHKVLARQQLQVLA [FAS2]
- protein stability index (doa10∆): 1.29 ± 0.044
- protein stability index (pdr5∆): 1.45 ± 0.062
- protein stability index (san1∆): 1.82 ± 0.099
- protein stability index (ubr1∆): 1.3 ± 0.047

Sequence: SKLSQEFLYPHLNFPNV [SNF12]
- protein stability index (doa10∆): 2.88 ± 0.08
- protein stability index (pdr5∆): 2.96 ± 0.088
- protein stability index (san1∆): 2.82 ± 0.069
- protein stability index (ubr1∆): 3.02 ± 0.065

Sequence: LLTEELAKSGSTEETTA [TAF14]
- protein stability index (doa10∆): 3.05 ± 0.15
- protein stability index (pdr5∆): 3.05 ± 0.091
- protein stability index (san1∆): 2.82 ± 0.1
- protein stability index (ubr1∆): 2.74 ± 0.087

Sequence: SNNSTTNTFGSNSAGTS [YJL041W/NSP1]
- protein stability index (doa10∆): 3.08 ± 0.18
- protein stability index (pdr5∆): 3.2 ± 0.14
- protein stability index (ubr1∆): 3.05 ± 0.18

Sequence: PKFGVEGLIRLDNLTED [DIS3]
- protein stability index (doa10∆): 2.97 ± 0.074
- protein stability index (pdr5∆): 2.86 ± 0.068
- protein stability index (san1∆): 3.08 ± 0.043
- protein stability index (ubr1∆): 3.07 ± 0.038

Sequence: QANIQLYSIREDYELSP [PRE1]
- protein stability index (doa10∆): 2.96 ± 0.1
- protein stability index (pdr5∆): 2.82 ± 0.093
- protein stability index (san1∆): 3.01 ± 0.074
- protein stability index (ubr1∆): 3.46 ± 0.11

Sequence: ATAFNKTRGPFHFRAPS [RPL16A]
- protein stability index (doa10∆): 2.67 ± 0.12
- protein stability index (pdr5∆): 3.07 ± 0.1
- protein stability index (san1∆): 2.56 ± 0.094
- protein stability index (ubr1∆): 2.71 ± 0.072

Sequence: SMQTIAETIILSSAGKN [SRB5]
- protein stability index (doa10∆): 2.09 ± 0.045
- protein stability index (pdr5∆): 2.39 ± 0.048
- protein stability index (san1∆): 1.8 ± 0.055
- protein stability index (ubr1∆): 1.9 ± 0.029

Sequence: MSAPEAQQQKRGGFGGR [RPS2]
- protein stability index (pdr5∆): 3.25 ± 0.13
- protein stability index (san1∆): 3.28 ± 0.1
- protein stability index (ubr1∆): 3.33 ± 0.17

Sequence: ETGNFSWASEGISKKTR [RPS8A]
- protein stability index (doa10∆): 3.15 ± 0.037
- protein stability index (pdr5∆): 3.267 ± 0.028
- protein stability index (san1∆): 3.206 ± 0.028
- protein stability index (ubr1∆): 3.228 ± 0.025

Sequence: DSLKLNSKPVELKPVSL [YJL041W/NSP1]
- protein stability index (doa10∆): 2.9 ± 0.082
- protein stability index (pdr5∆): 2.79 ± 0.07
- protein stability index (san1∆): 2.49 ± 0.097
- protein stability index (ubr1∆): 2.63 ± 0.1

Sequence: HRLTLEDPVTVEYLTRY [PRE6]
- protein stability index (doa10∆): 3.33 ± 0.19
- protein stability index (pdr5∆): 3.64 ± 0.24
- protein stability index (san1∆): 3.01 ± 0.19
- protein stability index (ubr1∆): 2.68 ± 0.22

Sequence: LKVYKVGDIVDIKANGS [RPL21A]
- protein stability index (doa10∆): 2.35 ± 0.054
- protein stability index (pdr5∆): 2.14 ± 0.044
- protein stability index (san1∆): 2.07 ± 0.052
- protein stability index (ubr1∆): 2.11 ± 0.029

Sequence: GESEKSSDVDMDDEEWR [RPC53]
- protein stability index (doa10∆): 3.7 ± 0.22
- protein stability index (pdr5∆): 3.63 ± 0.21
- protein stability index (san1∆): 3.35 ± 0.21
- protein stability index (ubr1∆): 3.33 ± 0.18

Sequence: MERLQRLMMNSKVGSAD [RPN11]
- protein stability index (doa10∆): 3.28 ± 0.15
- protein stability index (pdr5∆): 2.98 ± 0.17
- protein stability index (san1∆): 3.42 ± 0.097
- protein stability index (ubr1∆): 3.22 ± 0.12

Sequence: QETASPLSQDELISLRK [YIL149C/MLP2]
- protein stability index (doa10∆): 2.42 ± 0.06
- protein stability index (pdr5∆): 2.22 ± 0.074
- protein stability index (san1∆): 1.89 ± 0.11
- protein stability index (ubr1∆): 2.13 ± 0.061

Sequence: VSHHATTFTHCEIHPSM [RPB2]
- protein stability index (doa10∆): 3.12 ± 0.076
- protein stability index (pdr5∆): 3.22 ± 0.069
- protein stability index (san1∆): 2.46 ± 0.12
- protein stability index (ubr1∆): 2.96 ± 0.062
